According to article doi:10.1101/2024.09.27.615457 (bioRxiv, 2024):

Target: T1, MBP-tagged bHLH107 (Arabidopsis, UniProt Q9LET0 1-230)
T1 sequence (looked up): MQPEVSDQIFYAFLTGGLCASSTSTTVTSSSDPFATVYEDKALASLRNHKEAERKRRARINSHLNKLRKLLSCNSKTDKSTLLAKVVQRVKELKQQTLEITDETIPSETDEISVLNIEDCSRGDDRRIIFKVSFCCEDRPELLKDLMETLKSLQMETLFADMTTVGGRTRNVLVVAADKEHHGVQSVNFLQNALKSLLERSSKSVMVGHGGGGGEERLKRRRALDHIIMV
Test: pull-down

B1: His-tagged HY5 (natural protein, Arabidopsis, UniProt O24646 1-168, looked up)
chain: MQEQATSSLAASSLPSSSERSSSSAPHLEIKEGIESDEEIRRVPEFGGEAVGKETSGRESGSATGQERTQATVGESQRKRGRTPAEKENKRLKRLLRNRVSAQQARERKKAYLSELENRVKDLENKNSELEERLSTLQNENQMLRHILKNTTGNKRGGGGGSNADASL
binding result: binds
